{"source": "paper PMC9873567", "about": "(2022)", "key": {"ERECTA": {"molecular_target": "ERECTA (UniProt Q42371)", "experiment": "anti-MYC co-IP, anti-HA blot"}, "GST-PUB31 [1]": {"molecular_target": "T1, GST-PUB31 (Arabidopsis thaliana, UniProt Q9FHN9 1-444)", "T1 chain": "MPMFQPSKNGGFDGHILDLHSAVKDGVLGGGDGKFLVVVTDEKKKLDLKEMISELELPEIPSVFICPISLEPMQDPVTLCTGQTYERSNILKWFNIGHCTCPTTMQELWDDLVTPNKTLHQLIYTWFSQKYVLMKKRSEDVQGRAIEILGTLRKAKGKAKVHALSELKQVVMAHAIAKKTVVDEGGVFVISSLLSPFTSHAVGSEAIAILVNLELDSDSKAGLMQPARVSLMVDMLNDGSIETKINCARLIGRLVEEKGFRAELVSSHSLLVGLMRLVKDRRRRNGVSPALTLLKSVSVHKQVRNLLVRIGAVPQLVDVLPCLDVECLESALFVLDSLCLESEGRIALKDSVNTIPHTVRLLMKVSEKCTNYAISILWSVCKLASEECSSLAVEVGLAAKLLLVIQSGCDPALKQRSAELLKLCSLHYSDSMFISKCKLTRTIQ", "experiment": "BLI"}, "GST-PUB30 [2]": {"molecular_target": "T2, GST-PUB30 (Arabidopsis thaliana, UniProt Q058P4 1-448)", "T2 chain": "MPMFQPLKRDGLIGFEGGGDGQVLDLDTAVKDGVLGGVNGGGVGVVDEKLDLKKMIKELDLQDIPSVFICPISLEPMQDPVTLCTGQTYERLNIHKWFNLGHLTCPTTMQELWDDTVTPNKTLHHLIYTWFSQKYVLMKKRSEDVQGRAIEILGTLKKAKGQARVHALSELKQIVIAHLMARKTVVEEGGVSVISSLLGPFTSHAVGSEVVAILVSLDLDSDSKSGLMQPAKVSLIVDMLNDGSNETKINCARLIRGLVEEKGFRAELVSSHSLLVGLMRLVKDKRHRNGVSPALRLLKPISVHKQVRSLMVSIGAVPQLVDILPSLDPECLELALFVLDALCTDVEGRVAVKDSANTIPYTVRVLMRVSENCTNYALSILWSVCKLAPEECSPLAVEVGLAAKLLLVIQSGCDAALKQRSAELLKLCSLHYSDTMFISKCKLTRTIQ", "experiment": "BLI"}, "GST-PUB31 [3]": {"molecular_target": "T1, GST-PUB31", "experiment": "BLI"}, "GST-PUB30 [4]": {"molecular_target": "T2, GST-PUB30", "experiment": "BLI"}}, "note": "Where two headings read alike, the source gives them in different places.", "data": [{"molecule": "PUB30 (from UniProt Q058P4) PUB30 T155A-MYC", "values": [{"measurement": "binding against the reference", "setting": "ERECTA; reference: wild type PUB30-MYC, sites T155", "result": "weaker"}]}, {"molecule": "PUB31 (from UniProt Q9FHN9) PUB31 T151A-MYC", "values": [{"measurement": "binding against the reference", "setting": "ERECTA; reference: wild type PUB31-MYC, sites T151", "result": "weaker"}]}, {"molecule": "MBP-ERECTA_CD (domain or fragment) CRPHNPPPFLDGSLDKPVTYSTPKLVILHMNMALHVYEDIMRMTENLSEKYIIGHGASSTVYKCVLKNCKPVAIKRLYSHNPQSMKQFETELEMLSSIKHRNLVSLQAYSLSHLGSLLFYDYLENGSLWDLLHGPTKKKTLDWDTRLKIAYGAAQGLAYLHHDCSPRIIHRDVKSSNILLDKDLEARLTDFGIAKSLCVSKSHTSTYVMGTIGYIDPEYARTSRLTEKSDVYSYGIVLLELLTRRKAVDDESNLHHLIMSKTGNNEVMEMADPDITSTCKDLGVVKKVFQLALLCTKRQPNDRPTMHQVTRVLGSFMLSEQPPAATDTSATLAGSCYVDEYANLKTPHSVNCSSMSASDAQLFLRFGQVISQNSE", "values": [{"measurement": "Kd", "setting": "GST-PUB31 [1]", "result": 11, "unit": "µM"}, {"measurement": "Kd", "setting": "GST-PUB30 [2]", "result": 15, "unit": "µM"}]}, {"molecule": "MBP-BAK1_CD (domain or fragment) AWWRRKKPQDHFFDVPAEEDPEVHLGQLKRFSLRELQVASDNFSNKNILGRGGFGKVYKGRLADGTLVAVKRLKEERTQGGELQFQTEVEMISMAVHRNLLRLRGFCMTPTERLLVYPYMANGSVASCLRERPESQPPLDWPKRQRIALGSARGLAYLHDHCDPKIIHRDVKAANILLDEEFEAVVGDFGLAKLMDYKDTHVTTAVRGTIGHIAPEYLSTGKSSEKTDVFGYGVMLLELITGQRAFDLARLANDDDVMLLDWVKGLLKEKKLEALVDVDLQGNYKDEEVEQLIQVALLCTQSSPMERPKMSEVVRMLEGDGLAERWEEWQKEEMFRQDFNYPTHHPAVSGWIIGDSTSQIENEYPSGPR", "values": [{"measurement": "Kd", "setting": "GST-PUB31 [3]", "result": 2, "unit": "µM"}, {"measurement": "Kd", "setting": "GST-PUB30 [4]", "result": 2.4, "unit": "µM"}]}]}
